Results as given in the Human Domainome abundance scans (Beltran et al. 2025).
± gives the uncertainty stated by the source.

B1: Receptor-interacting serine/threonine-protein kinase 2, residues 438 to 518; numbered along this chain, O43353 (parent)
chain: QWIQSKREDIVNQMTEACLNQSLDALLSRDLIMKEDYELVSTKPTRTSKVRQLLDTTDIQGEEFAKVIVQKLKDNKQMGLQ

Variants of: B1
Experiment: abundance fitness (aPCA) (normalised: wild type 0, dead -1); higher = more abundant; growth selection in yeast, the domain comes from the species named
Conditions: Homo sapiens

| Variant | abundance fitness |
| --- | --- |
| Q13F | -0.314 ± 0.45 |
| Q13M | -0.369 ± 0.48 |
| Q13L | -0.541 ± 0.16 |
| Q13E | -0.027 ± 0.27 |
| Q13T | -0.19 ± 0.28 |
| Q13S | 0.072 ± 0.16 |
| Q13V | -0.199 ± 0.23 |
| Q13G | -0.365 ± 0.13 |
| Q13R | -0.527 ± 0.18 |
| Q13A | 0.032 ± 0.19 |
| C18S | -0.24 ± 0.061 |
| C18F | -0.375 ± 0.19 |
| C18I | -0.384 ± 0.12 |
| C18E | 0.062 ± 0.095 |
| C18H | -0.747 ± 0.2 |
| C18R | -0.559 ± 0.071 |
| C18A | -0.151 ± 0.067 |
| C18M | -0.264 ± 0.23 |
| C18T | 0.158 ± 0.084 |
| C18N | -0.288 ± 0.16 |
| C18Q | -0.316 ± 0.11 |
| C18Y | -0.795 ± 0.22 |
| C18L | -0.519 ± 0.072 |
| C18G | -0.425 ± 0.062 |

| Variant | abundance fitness |
| --- | --- |
| C18D | -0.796 ± 0.25 |
| C18V | -0.004 ± 0.079 |
| C18P | -0.299 ± 0.074 |
| K6F | 0.095 ± 0.44 |
| E16V | -0.289 ± 0.067 |
| E16G | -0.858 ± 0.098 |
| E16P | -0.539 ± 0.078 |
| E16M | -0.186 ± 0.19 |
| E16T | -0.193 ± 0.079 |
| E16D | 0.014 ± 0.11 |
| E16Y | -0.576 ± 0.15 |
| E16Q | -0.546 ± 0.12 |
| E16S | -0.272 ± 0.061 |
| E16L | -0.288 ± 0.072 |
| E16R | -0.793 ± 0.082 |
| E16K | -0.537 ± 0.14 |
| E16C | -0.853 ± 0.23 |
| E16I | -0.319 ± 0.11 |
| S5D | 0.224 ± 0.27 |
| S5W | -0.639 ± 0.46 |
| S5G | -0.177 ± 0.24 |
| S5R | -0.125 ± 0.16 |
| S5V | -0.384 ± 0.16 |
| S5F | -0.636 ± 0.43 |

| Variant | abundance fitness |
| --- | --- |
| S5Q | -0.088 ± 0.23 |
| S5T | -0.315 ± 0.14 |
| S5L | -0.216 ± 0.15 |
| S5H | -0.824 ± 0.36 |
| S5K | -0.171 ± 0.27 |
| S5P | -0.623 ± 0.15 |
| S5E | 0.372 ± 0.27 |
| N12I | -0.486 ± 0.21 |
| N12A | 0.073 ± 0.093 |
| N12K | -0.039 ± 0.15 |
| N12V | -0.374 ± 0.086 |
| N12M | -0.002 ± 0.19 |
| N12Y | -0.382 ± 0.4 |
| N12L | -0.068 ± 0.059 |
| N12Q | -0.248 ± 0.23 |
| N12F | -0.62 ± 0.16 |
| N12C | -0.028 ± 0.1 |
| N12W | -0.829 ± 0.19 |
| N12R | -0.008 ± 0.059 |
| N12G | -0.162 ± 0.065 |
| N12D | -0.089 ± 0.14 |
| N12S | -0.213 ± 0.071 |
| N12H | -0.108 ± 0.11 |
| N12P | -0.978 ± 0.23 |

| Variant | abundance fitness |
| --- | --- |
| N12E | 0.199 ± 0.21 |
| W2D | -0.232 ± 0.31 |
| W2M | -0.4 ± 0.12 |
| W2L | -0.45 ± 0.074 |
| W2Q | -0.411 ± 0.14 |
| W2R | -0.41 ± 0.088 |
| W2K | -0.435 ± 0.14 |
| W2I | 0.069 ± 0.43 |
| W2E | -0.438 ± 0.11 |
| W2C | -0.556 ± 0.18 |
| W2H | -0.684 ± 0.24 |
| W2T | -0.609 ± 0.24 |
| W2G | -0.546 ± 0.084 |
| W2N | -0.196 ± 0.2 |
| W2V | -0.632 ± 0.1 |
| Q4F | -0.166 ± 0.15 |
| Q4A | -0.078 ± 0.12 |
| Q4G | -0.685 ± 0.13 |
| Q4T | 0.458 ± 0.5 |
| Q4V | -0.756 ± 0.34 |
| Q4S | 0.09 ± 0.15 |
| Q4R | -0.045 ± 0.1 |
| Q4M | 0.279 ± 0.29 |
| Q4I | 0.135 ± 0.39 |

| Variant | abundance fitness |
| --- | --- |
| Q4P | -0.923 ± 0.35 |
| V11W | -1.03 ± 0.21 |
| V11F | -0.777 ± 0.46 |
| V11E | -0.376 ± 0.11 |
| V11H | -0.656 ± 0.29 |
| V11A | -0.49 ± 0.075 |
| V11R | -0.534 ± 0.081 |
| V11C | -0.288 ± 0.09 |
| V11S | -0.575 ± 0.071 |
| V11L | -0.373 ± 0.074 |
| V11Q | -0.776 ± 0.21 |
| V11P | -0.503 ± 0.087 |
| V11G | -0.553 ± 0.063 |
| V11N | -0.577 ± 0.27 |
| V11I | 0.091 ± 0.12 |
| V11M | -0.099 ± 0.15 |
| Q1H | -0.398 ± 0.4 |
| Q1L | -0.399 ± 0.28 |
| Q1R | -0.389 ± 0.47 |
| R7W | -0.673 ± 0.12 |
| R7F | -0.027 ± 0.17 |
| R7E | -0.42 ± 0.13 |
| R7P | -0.956 ± 0.14 |
| R7G | -0.563 ± 0.079 |

| Variant | abundance fitness |
| --- | --- |
| R7S | -0.419 ± 0.073 |
| R7Y | -0.501 ± 0.17 |
| R7L | -0.545 ± 0.085 |
| R7K | 0.032 ± 0.14 |
| R7Q | -0.463 ± 0.13 |
| R7M | -1.09 ± 0.42 |
| R7C | -1.04 ± 0.31 |
| R7V | -0.611 ± 0.085 |
| R7A | -0.334 ± 0.081 |
| R7I | -0.838 ± 0.38 |
| I10H | -0.862 ± 0.23 |
| I10G | -0.764 ± 0.11 |
| I10S | -0.618 ± 0.098 |
| I10A | -1.04 ± 0.31 |
| I10F | -0.877 ± 0.47 |
| I10T | -0.697 ± 0.15 |
| I10V | -0.628 ± 0.12 |
| I10K | -0.619 ± 0.16 |
| I10P | -0.622 ± 0.14 |
| I10N | -0.476 ± 0.12 |
| I10Q | -0.541 ± 0.16 |
| I10C | -0.712 ± 0.17 |
| I10M | -0.421 ± 0.23 |
| I10W | -0.968 ± 0.29 |

| Variant | abundance fitness |
| --- | --- |
| I10Y | -0.864 ± 0.28 |
| I10L | -0.264 ± 0.087 |
| Q21H | -0.562 ± 0.13 |
| Q21G | -0.432 ± 0.064 |
| Q21A | 0.089 ± 0.12 |
| Q21L | -0.319 ± 0.073 |
| Q21E | -0.096 ± 0.1 |
| Q21N | -0.357 ± 0.2 |
| Q21C | -0.475 ± 0.12 |
| Q21I | -0.788 ± 0.1 |
| Q21K | -0.338 ± 0.18 |
| Q21F | -0.776 ± 0.28 |
| Q21M | -0.736 ± 0.19 |
| Q21D | 0.183 ± 0.11 |
| T15S | 0.158 ± 0.042 |
| T15A | -0.645 ± 0.11 |
| T15G | -0.566 ± 0.071 |
| T15W | -1.05 ± 0.21 |
| T15P | -0.492 ± 0.08 |
| T15H | -1.13 ± 0.35 |
| T15L | -0.75 ± 0.12 |
| T15N | -0.518 ± 0.093 |
| T15Y | -0.946 ± 0.31 |
